Measurements as given in patent US20160053014A1 (SORRENTO THERAPEUTICS, published 2016).

T1: human CXCR5 (human, UniProt P32302 1-372)
T1 construct: whole, on cells; also called hu-CHO; CHO-CXCR5 cells
T1 sequence (looked up): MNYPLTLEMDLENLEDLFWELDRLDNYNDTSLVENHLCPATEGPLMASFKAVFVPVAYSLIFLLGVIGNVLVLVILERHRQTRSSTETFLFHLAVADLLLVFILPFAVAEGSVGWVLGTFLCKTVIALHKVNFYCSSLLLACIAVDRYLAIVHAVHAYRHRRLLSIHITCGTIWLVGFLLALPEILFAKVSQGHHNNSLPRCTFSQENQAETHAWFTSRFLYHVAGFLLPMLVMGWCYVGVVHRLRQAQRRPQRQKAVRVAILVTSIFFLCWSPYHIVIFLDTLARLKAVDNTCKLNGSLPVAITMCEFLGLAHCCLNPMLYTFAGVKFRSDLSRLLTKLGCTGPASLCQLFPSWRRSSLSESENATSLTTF

T2: murine CXCR5 (murine, UniProt Q04683 1-374)
T2 construct: whole, on cells; Endogenous receptor on mouse spleen cells cultured with LPS
T2 sequence (looked up): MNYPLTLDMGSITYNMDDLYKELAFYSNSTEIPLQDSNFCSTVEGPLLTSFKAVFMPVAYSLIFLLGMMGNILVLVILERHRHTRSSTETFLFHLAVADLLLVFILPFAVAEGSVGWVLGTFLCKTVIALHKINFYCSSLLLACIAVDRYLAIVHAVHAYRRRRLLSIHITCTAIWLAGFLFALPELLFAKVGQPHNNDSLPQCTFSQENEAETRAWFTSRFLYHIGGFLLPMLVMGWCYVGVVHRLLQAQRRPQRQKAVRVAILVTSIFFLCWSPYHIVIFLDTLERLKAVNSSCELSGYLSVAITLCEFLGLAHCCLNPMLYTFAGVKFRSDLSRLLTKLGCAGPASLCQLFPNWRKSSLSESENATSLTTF

B1: 13E4 (antibody, V domains shown)
VH: QITLKESGGGVVQPGRSLRLSCAASGFTFSSYGMHWVRQAPGKGLEWVAVISYDGSNKYYADSVKGRFTISRDNSKNTLYLQMNSLRAEDTAVYYCANNGWATYPDYWGQGTLVTVSS
VL: QPVLTQPASVSGSPGQSITISCTGTSSDVGGYNYVSWYQQHPGKAPKLMIYDVSNRPSGVSNRFSGSKSGNTASLTISGLQAEDEADYYCSSYTSSSTLVFGGGTKLTVL
notes: tested as human IgG
B2: 16F8 (antibody, V domains shown)
VH: EVQLLESGGGLVQPGGSLRLSCAASGFTFSSYGMHWVRQAPGKGLEWVAVISYDGSNKYYADSVKGRFTISRDNSKNTLYLQLNSLRAEDTAVYYCARGQNLDYWGQGTLVTVSS
VL: QPVLTQPASVSGSPGQSITISCTGTSSDVGGYNYISWYQQHPGKAPKLMIYEVSNRPSGVSNRFSGSKSGNTASLTISGLQAEDEADYYCSSYRSSSTQVFGGGTKLTVL
notes: tested as human IgG
B3: 13F9 (antibody, V domains shown)
VH: EVQLLESGGGLIQPGGSLRLSCAASGFIFSRYGMHWVRQAPGKGLEWVAVTSYDGRSKYYTDSVQGRFTISRDNSKNTLDLQMNSLRAEDTAVYYCARLHTVGPWHFDLWGRGTLVTVSS
VL: SYELTQPRSVSGSPGQSVTISCTGTSSDVGGYNYVSWYQQHPGKVPKLMIYEVSNRPSGVSNRFSGSKSGNAASLTISGLQAEDEADYYCSSYTSSSTLVFGGGTKLTVL
notes: tested as human IgG
B4: 12G10 (antibody, V domains shown)
VH: EVQLVESGGGVVQPGRSLRLSCAASGFTFSSYAMHWVRQAPGKGLEWVAVISYDGSNKYYADSVKGRFTISRDNSKNTLYLQMNSLRAEDTAVYYCARIAVAGTHFDYWGQGTLVTVSS
VL: SYELMQPPSVSGTPGQRVTISCSGSTSNVGSNTVNWYRQFPGTAPKLLIYANNQRPSGVPDRFSGSKSGTSASLAISGLQSENEADYYCAAWDDSLNGYVFGTGTKLTVL
notes: tested as human IgG
B5: 16F9 (antibody, V domains shown)
VH: EVQLVESGGEVKKPGASVKLSCKSSGYTFTSYYMHWVRQAPGQGLEWMGIINPSGGSTSSAQKFQGRVTMTRDTSTRTVYMELSSLRSEDTAVYYCARGAPNWNYARTLFDYWGQGTLVTVSS
VL: SYELTQPRSVSGSPGQSVTISCTGTSSDVGGYNSVSWYQQHPGKAPKLMIYDVSKRPSGVPDRFSGSKSGNTASLTISGLQAEDEADYYCSSYSSSTTHVVFGGGTKLTVL
notes: tested as human IgG
B6: 14E5 (antibody, V domains shown)
VH: EVQLVESGGGVVQPGRSLRLSCAASGFTFSSYGMHWVRQAPGKGLEWVAVISYDGSNKYYADSVKGRFTISRDNSKNTLYLQMNSLRAEDTAVYYCAKVYSRGSDYWGQGTLVTVSS
VL: QSVLTQPASVSGSPGQSITISCTGTSSDVGGYNYVSWYQQHPGKAPKLLIYDVSRRPSGISSRFSGSKSGNTASLTISGLQTEDDGDYYCLSYTTSRAVVFGGGTKLTVL
notes: tested as human IgG
B7: 15G11 (antibody, V domains shown)
VH: QVQLVQSGGGVVQPGGSLRLSCAASGFAFNRYGMHWVRQAPGQGLEWVAVISYDGSLKYYADSVKGRFTISRDNSNNTLYLQMNSLSADDTAVYYCAKGGAALDSWGQGTLVTVSS
VL: DVVMTQSPLSSPVTLGQPASISCRSSQSLVHSDGTTYLSWLQQRPGQPPRLLIYKISNRFSGVPDRFSGSGAGTDFTLKISRVEAEDVGVYYCMQTTQFPPMFGQGTKVEIK
notes: tested as human IgG
B8: 13E10 (antibody, V domains shown)
VH: EVQLVQSGAEVKKPGASLKISCRASGYTFTRNYIHWVRQAPGQGLEWLGIINPNGGSTRYSQKFQGRVTMTRDTSTRTVYMELSSLRSEDTAVYYCAREAPKYCSGSSCYSGGVDYWGQGTLVTVSS
VL: QPVLTQPLSASGTPGQRVTISCSGSSSNIGSNYVYWYQQLPGTAPKLLIYRNYQRPSGVPDRFSGSTSGTSASLAISGLRSEDEADYHCAAWDGSMRGWVFGGGTKLTVL
notes: tested as human IgG
B9: 11A7 (antibody, human IgG1, V domains shown)
VH: EVQLVESGGGLVQPGGSLRLSCAASGFTVSSNYMSWVRQAPGKGLEWVSVIYSGGSTYYADSVKGRFTISRHNSKNTLYLQMNSLRAEDTAVYYCARGYVVWGQGTLVTVSS
VL: QPVLTQPPSVSKDLRQTATLTCTGNSNNVGNQGATWLQQHQGHPPKLLSYKNNNRPSGISERFSASRSGNTASLTITGLQPEDEADYYCSAWDSSLSAWVFGGGTQLTVL
notes: 'Antibody 11A7 is a fully human IgG1'
B10: 12D11 (antibody, V domains shown)
VH: EVQLVQSGAEVKKPGASVKVSCKASGYTFTGYYLNWVRQAPGQGLEWMGWINPNNGGTNYAQRFQGRVTMTRDTSISTAYMDLSRLRSDDTAVYYCVRGTRKYYHDSNGRRRDYYYGMDVWGQGTTVTVSS
VL: AIRMTQSPSSLSASVGDRVTITCRASQSISSYLNWYQQKPGKAPKLLIYAASSLQSGVPSKFSGSGSGTEFTLTISSLQPEDFATYYCQQYKFYPPNFGGGTKVEI
notes: tested as human IgG
B11: 12D3 (antibody, V domains shown)
VH: EVQLVESGGGLVKPGRSLRLSCAASGFTFSSYAMHWVRQAPGKGLEWVAVISYDGSNKYYADSVKGRFTISRDNSKNTLYLQMNSLRAEDTAVYYCARLRWLDYWGQGTLVTVSS
VL: QPVLTQPASVSGSPGQSIAISCTGTSSDVGSNNRVSWYQQHPGKAPKLMIYEVDKRPSGVSNRFSGSKSGNTASLTISGLQAEDEADYYCGTWDSSLSAYVFGTGTKLTVL
notes: tested as human IgG
B12: 11G3 (antibody, V domains shown)
VH: EVQLVQSGGGVVQPGRSLRLSCAASGFTFSSYAMHWVRQAPGKGLEWVAVISYDGSNKYYADSVKGRFTISRDNSKNTLYLQMNSLRAEDTAVYYCARLTRGSDYYGSGRSMNDYWGQGTLVTVSS
VL: DIVMTQTPLSLPVTLGQPASISCRSSQSLVHSDGNTYLNWFQQRPGQSPRRLIYKVSNRDSGVPDRFSGSGSGTDFTLKISRVEAEDVGVYYCMQGTHWPPTFGQGTKVEIK
notes: tested as human IgG
B13: 11E3 (antibody, V domains shown)
VH: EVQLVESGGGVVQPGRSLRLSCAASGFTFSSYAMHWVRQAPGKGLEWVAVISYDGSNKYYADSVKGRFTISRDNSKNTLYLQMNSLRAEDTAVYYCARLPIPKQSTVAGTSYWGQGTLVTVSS
VL: LPVLTQPASVSGSPGQSITISCTGTSSDVGGYNYVSWYQQHPGNAPKLMIYDVSNRPSGVSNRFSGSKSGNTASLTISGLQAEDEADYYCSSYTSSSTLYVFGTGTKLTVL
notes: tested as human IgG

How the values were obtained:
[1] = target: T1, human CXCR5; experiment: flow cytometry on CHO-CXCR5 cells, IgG titration
Excerpt: This example describes a cellular binding assay to determine the EC₅₀ for anti-CXCR5 antibodies binding to human CXCR5. […] In this example, CHO-CXCR5 cells were lifted from culture flasks using non-enzymatic Cell Dissociation Buffer—PBS based (Life Technologies #13151-014). Cells were resuspended in FACS Buffer (2% Fetal Bovine Serum in PBS) at 1×10⁶ cells/ml and […] were aliquoted into the wells of a 96-well plate. Plated cells were spun down and the supernatant discarded. Cells were resuspended in 30 μl FACS Buffer serially diluted concentrations of CXCR5 IgG in triplicate. Plates were incubated for 1 hr at 4° C. and then washed 2× with FACS Buffer. Cells were resuspended in 50 μl goat anti-human IgG (γ-chain specific)-PE conjugated secondary antibody (Southern Biotech #2040-09) diluted 1:500 in FACS Buffer. Cells were further incubated for 30 min at 4° C. and then washed 1× with FACS Buffer. The cells were resuspended in a final volume of 30 μl FACS Buffer and analyzed using the Intellicyt Flow Cytometer. Median fluorescence in the FL-2H channel was determined using FlowJo software and EC₅₀ value was determined by plotting the data in GraphPad Prism and analyzing using a variable slope non-linear regression.

[2] = target: T2, murine CXCR5; experiment: flow cytometry on LPS-cultured mouse spleen cells, IgG titration
Experimental: In this example, mouse spleen cells were harvested from either C57B1/6 or athymic nu/nu mice. Cells were cultured at 2×10⁶ per ml with LPS at 10 micrograms per ml in RPMI+10% FCS for up to 4 days at 37° C. in 5% CO2. Cells were harvested, washed and resuspended in FACS Buffer (2% Fetal Bovine Serum in PBS) at 1×10⁶ cells/ml and 50 μl (0.5×10⁵ cells) were aliquoted into the wells of a 96-well plate. Plated cells were spun down and the supernatant discarded. Cells were resuspended in 30 μl FACS Buffer containing serially diluted concentrations of CXCR5 IgG in triplicate. Plates were incubated for 1 hr at 4° C. and then washed 2x with FACS Buffer. Cells were resuspended in 50 μl goat anti-human IgG (γ-chain specific)-PE conjugated secondary antibody (Southern Biotech #2040-09) diluted 1:500 in FACS Buffer. Cells were further incubated for 30 min at 4° C. and then washed 1× with FACS Buffer. The cells were resuspended in a final volume of 30 μl FACS Buffer and analyzed using the Intellicyt Flow Cytometer. Median fluorescence in the FL-2H channel was determined using FlowJo software and EC₅₀ value was determined by plotting the data in GraphPad Prism and analyzing using a variable slope non-linear regression.

[3] = target: T1, human CXCR5; experiment: cell-based or functional assay
[4] = target: T1, human CXCR5; experiment: cell-based or functional assay; remark: listed apart in the source

Row | Binder | EC50 [1] [nM] | EC50 [2] [nM] | IC50 [nM] of mAbs in calcium flux assay using CHO-CXCR5 cells (challenge with 9 nM CXCL13) [3] [nM] | IC50 [nM] of mAbs in chemotaxis assay using HS-Sultan cells (25 nM CXCL13) [4] [nM]
1 | B1 | 0.9 | 5.5 | – | –
2 | B2 | 3.6 | 15 | – | –
3 | B3 | 1.6 | 23 | – | –
4 | B4 | 0.5 | 2.5 | – | –
5 | B5 | 0.7 | 3.1 | – | –
6 | B6 | 0.3 | 2.8 | – | –
7 | B7 | 0.4 | 4.8 | – | –
8 | B8 | 0.7 | 25 | – | –
9 | B9 | 0.9 | – | 5 | 4.8
10 | B10 | 2.1 | – | – | –
11 | B11 | 1.3 | 27 | – | –
12 | B12 | 2.6 | 37 | – | –
13 | B13 | 1.8 | 11 | – | –
